Changes are numbered by the printed parent chain.
B1: Clone 20 (designed binder)
chain: MIPGGLSEAKPATPEIQEIVDKVKPQLEEKTGETYGKLEAVQYKTQVVANSKWHYAFGTNYYIKVRAGDNKYMHLKVFKSLDNAIYRGPTEDLVLTGYQVDKNKDDELTGF
notes: His-tagged
B2: Clone 204 (designed binder)
chain: MIPGGLSEAKPATPEIQEIVDKVKPQLEEKTGETYGKLEAVQYKTQVVSLRPHEQLYGTNYYIKVRAGDNKYMHLKVFKSLHLKLWKIPNEDLVLTGYQVDKNKDDELTGF
notes: His-tagged
B3: Clone 198 (designed binder)
chain: MIPGGLSEAKPATPEIQEIVDKVKPQLEEKTGETYGKLEAVQYKTQVVSSPLHWELWHWSGTNYYIKVRAGDNKYMHLKVFKSLELNNKDQNDEDLVLTGYQVDKNKDDELTGF
notes: His-tagged
B4: Clone 191 (designed binder)
chain: MIPGGLSEAKPATPEIQEIVDKVKPQLEEKTGETYGKLEAVQYKTQVVLRYHFPEFHGTNYYIKVRAGDNKYMHLKVFKSLNHLAIHELPEDLVLTGYQVDKNKDDELTGF
notes: His-tagged
B5: Clone 188 (designed binder)
chain: MIPGGLSEAKPATPEIQEIVDKVKPQLEEKTGETYGKLEAVQYKTQVVPQENAPWVLGTNYYIKVRAGDNKYMHLKVFKSLNWDQPDTVLEDLVLTGYQVDKNKDDELTGF
notes: His-tagged
B6: Clone 2 (designed binder)
chain: MIPGGLSEAKPATPEIQEIVDKVKPQLEEKTGETYGKLEAVQYKTQVVASFIDIGWHGTNYYIKVRAGDNKYMHLKVFKSLREGKHGRNKEDLVLTGYQVDKNKDDELTGF
notes: His-tagged
B7: Clone 36 (designed binder)
chain: MIPGGLSEAKPATPEIQEIVDKVKPQLEEKTGETYGKLEAVQYKTQVVWSFAQVGWHGTNYYIKVRAGDNKYMHLKVFKSLRRFEHLPFYEDLVLTGYQVDKNKDDELTGF
notes: His-tagged
B8: Clone 173 (designed binder)
chain: MIPGGLSEAKPATPEIQEIVDKVKPQLEEKTGETYGKLEAVQYKTQVVDWPSHAKFWGTNYYIKVRAGDNKYMHLKVFKSLFLPDKDDPFEDLVLTGYQVDKNKDDELTGF
notes: His-tagged
B9: Clone 206 (designed binder)
chain: MIPGGLSEAKPATPEIQEIVDKVKPQLEEKTGETYGKLEAVQYKTQVVRADVNVIWWGTNYYIKVRAGDNKYMHLKVFKSLPVKYKEILLEDLVLTGYQVDKNKDDELTGF
notes: His-tagged
B10: Clone 183 (designed binder)
chain: MIPGGLSEAKPATPEIQEIVDKVKPQLEEKTGETYGKLEAVQYKTQVVRQTDSVKWWGTNYYIKVRAGDNKYMHLKVFKSLWYNRYYNDFEDLVLTGYQVDKNKDDELTGF
notes: His-tagged
B11: Clone 193 (designed binder)
chain: MIPGGLSEAKPATPEIQEIVDKVKPQLEEKTGETYGKLEAVQYKTQVVLRHPVQDDDGTNYYIKVRAGDNKYMHLKVFKSLAGVNRWKWIEDLVLTGYQVDKNKDDELTGF
notes: His-tagged
B12: Clone 180 (designed binder)
chain: MIPGGLSEAKPATPEIQEIVDKVKPQLEEKTGETYGKLEAVQYKTQVVLQGSRLPIEGTNYYIKVRAGDNKYMHLKVFKSLGWHNVTLPPEDLVLTGYQVDKNKDDELTGF
notes: His-tagged
B13: Clone 177 (designed binder)
chain: MIPGGLSEAKPATPEIQEIVDKVKPQLEEKTGETYGKLEAVQYKTQVVISEDSWWPHGTNYYIKVRAGDNKYMHLKVFKSLNWFHQPWQREDLVLTGYQVDKNKDDELTGF
notes: His-tagged
B14: Clone 192 (designed binder)
chain: MIPGGLSEAKPATPEIQEIVDKVKPQLEEKTGETYGKLEAVQYKTQVVTENNSWWPIGTNYYIKVRAGDNKYMHLKVFKSLNWFSDEAPYEDLVLTGYQVDKNKDDELTGF
notes: His-tagged
B15: Clone 182 (designed binder)
chain: MIPGGLSEAKPATPEIQEIVDKVKPQLEEKTGETYGKLEAVQYKTQVVLKTNPSPSDGTNYYIKVRAGDNKYMHLKVFKSLAVFRQRLGVEDLVLTGYQVDKNKDDELTGF
notes: His-tagged
B16: Clone 172 (designed binder)
chain: MIPGGLSEAKPATPEIQEIVDKVKPQLEEKTGETYGKLEAVQYKTQVVSVFQYTYKFGTNYYIKVRAGDNKYMHLKVFKSLNNKPPHNDLEDLVLTGYQVDKNKDDELTGF
notes: His-tagged
B17: Clone 186 (designed binder)
chain: MIPGGLSEAKPATPEIQEIVDKVKPQLEEKTGETYGKLEAVQYKTQVVYDNVKEYPWGTNYYIKVRAGDNKYMHLKVFKSLKWYDPTIRPEDLVLTGYQVDKNKDDELTGF
notes: His-tagged
B18: Clone 200 (designed binder)
chain: MIPGGLSEAKPATPEIQEIVDKVKPQLEEKTGETYGKLEAVQYKTQVVYGPHHQTYAGTNYYIKVRAGDNKYMHLKVFKSLYALHINRWPEDLVLTGYQVDKNKDDELTGF
notes: His-tagged
B19: Clone 18 (designed binder)
chain: MIPGGLSEAKPATPEIQEIVDKVKPQLEEKTGETYGKLEAVQYKTQVVEAHQDLHFWGTNYYIKVRAGDNKYMHLKVFKSLLTEHNKKHQERHLDHEDLVLTGYQVDKNKDDELTGF
notes: His-tagged
B20: Clone 34 (designed binder)
chain: MIPGGLSEAKPATPEIQEIVDKVKPQLEEKTGETYGKLEAVQYKTQVVTHLNNNAWTGTNYYIKVRAGDNKYMHLKVFKSLFFHNGKIYREDLVLTGYQVDKNKDDELTGF
notes: His-tagged
B21: Clone 203 (designed binder)
chain: MIPGGLSEAKPATPEIQEIVDKVKPQLEEKTGETYGKLEAVQYKTQVVYHGPPKEWLGTNYYIKVRAGDNKYMHLKVFKSLFFWKGNGYREDLVLTGYQVDKNKDDELTGF
notes: His-tagged
B22: Clone 178 (designed binder)
chain: MIPGGLSEAKPATPEIQEIVDKVKPQLEEKTGETYGKLEAVQYKTQVVDHLPHAKYWGTNYYIKVRAGDNKYMHLKVFKSLWYQPRWKVEEDLVLTGYQVDKNKDDELTGF
notes: His-tagged
B23: Clone 79 (designed binder)
chain: MIPGGLSEAKPATPEIQEIVDKVKPQLEEKTGETYGKLEAVQYKTQVVIWHSEWSYTGTNYYIKVRAGDNKYMHLKVFKSLFTRHSEPWEEDLVLTGYQVDKNKDDELTGF
notes: His-tagged
B24: Clone 202 (designed binder)
chain: MIPGGLSEAKPATPEIQEIVDKVKPQLEEKTGETYGKLEAVQYKTQVVIRHVIWSYSGTNYYIKVRAGDNKYMHLKVFKSLWERNASLSEEDLVLTGYQVDKNKDDELTGF
notes: His-tagged
B25: Clone 49 (designed binder)
chain: MIPGGLSEAKPATPEIQEIVDKVKPQLEEKTGETYGKLEAVQYKTQVVKYYAIFDYKGTNYYIKVRAGDNKYMHLKVFKSLFKEKVRNSIEDLVLTGYQVDKNKDDELTGF
notes: His-tagged
B26: Clone 181 (designed binder)
chain: MIPGGLSEAKPATPEIQEIVDKVKPQLEEKTGETYGKLEAVQYKTQVVKAYKVFNYIGTNYYIKVRAGDNKYMHLKVFKSLFKWDNGISDEDLVLTGYQVDKNKDDELTGF
notes: His-tagged
B27: Clone 81 (designed binder)
chain: MIPGGLSEAKPATPEIQEIVDKVKPQLEEKTGETYGKLEAVQYKTQVVKAYVIWSYKGTNYYIKVRAGDNKYMHLKVFKSLFYGEPRGKGEDLVLTGYQVDKNKDDELTGF
notes: His-tagged
B28: Clone 217 (designed binder)
chain: MIPGGLSEAKPATPEIQEIVDKVKPQLEEKTGETYGKLEAVQYKTQVVKKYVIFFYEGTNYYIKVRAGDNKYMHLKVFKSLFVNKGGSDDEDLVLTGYQVDKNKDDELTGF
notes: His-tagged
B29: Clone 199 (designed binder)
chain: MIPGGLSEAKPATPEIQEIVDKVKPQLEEKTGETYGKLEAVQYKTQVVRDHELVNQWGTNYYIKVRAGDNKYMHLKVFKSLFGQPVQGNTEDLVLTGYQVDKNKDDELTGF
notes: His-tagged
B30: Clone 187 (designed binder)
chain: MIPGGLSEAKPATPEIQEIVDKVKPQLEEKTGETYGKLEAVQYKTQVVIQDWTVGWEGTNYYIKVRAGDNKYMHLKVFKSLRIGRSTNLWEDLVLTGYQVDKNKDDELTGF
notes: His-tagged
B31: Clone 254 (designed binder)
chain: B30 chain with Q50S, W52V, T53S, I83S, R85P, S86A, T87H, N88V, L89R, W90R
notes: His-tagged
B32: Clone 209 (designed binder)
chain: MIPGGLSEAKPATPEIQEIVDKVKPQLEEKTGETYGKLEAVQYKTQVVIAKEENHWRGTNYYIKVRAGDNKYMHLKVFKSLHYYQDVLYREDLVLTGYQVDKNKDDELTGF
notes: His-tagged
B33: Clone 195 (designed binder)
chain: MIPGGLSEAKPATPEIQEIVDKVKPQLEEKTGETYGKLEAVQYKTQVVVGVGRDFPKGTNYYIKVRAGDNKYMHLKVFKSLYIHYLKVNEEDLVLTGYQVDKNKDDELTGF
notes: His-tagged
B34: Clone 185 (designed binder)
chain: MIPGGLSEAKPATPEIQEIVDKVKPQLEEKTGETYGKLEAVQYKTQVVVVLFASGWEGTNYYIKVRAGDNKYMHLKVFKSLIQWRDHKPREDLVLTGYQVDKNKDDELTGF
notes: His-tagged
B35: Clone 197 (designed binder)
chain: MIPGGLSEAKPATPEIQEIVDKVKPQLEEKTGETYGKLEAVQYKTQVVWKPQDSVNWGTNYYIKVRAGDNKYMHLKVFKSLDWDGAAGDAEDLVLTGYQVDKNKDDELTGF
notes: His-tagged

Target: T1, human PD-L1-Fc (R&D Systems) (human, UniProt Q9NZQ7 19-239)
T1 construct: Bought from R&D Systems; Biotinylated in-house for the phage selection; also called huPD-L1-Fc; human PD-L1-Fc antigen; not shown: Fc part of the bought fusion
T1 sequence (Q9NZQ7 19-239 limits assumed): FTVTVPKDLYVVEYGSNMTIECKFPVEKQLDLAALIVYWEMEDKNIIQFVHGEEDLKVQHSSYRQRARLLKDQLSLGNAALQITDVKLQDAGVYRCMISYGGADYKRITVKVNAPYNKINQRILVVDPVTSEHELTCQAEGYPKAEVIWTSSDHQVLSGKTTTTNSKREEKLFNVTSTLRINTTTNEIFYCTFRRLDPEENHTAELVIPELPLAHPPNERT
Assay: soluble Affimer ELISA

binding result	Binder
binds	B1
binds	B2
binds	B3
binds	B4
binds	B5
binds	B6
binds	B7
binds	B8
binds	B9
binds	B10
binds	B11
binds	B12
binds	B13
binds	B14
binds	B15
binds	B16
binds	B17
binds	B18

binding result	Binder
binds	B19
binds	B20
binds	B21
binds	B22
binds	B23
binds	B24
binds	B25
binds	B26
binds	B27
binds	B28
binds	B29
binds	B30
binds	B31
binds	B32
binds	B33
binds	B34
binds	B35
